Reference: article PMC7195491
Numbering of substitutions follows the chain as printed. Names may count otherwise. Values belong to the binder of their own block, whether it stands above or below them.

Assays:
Test in all cases: SPR
[1] = target: T1, DIP-γ (Dpr Interacting Protein gamma), extracellular region, Q9VAR6; conditions: chain shown with the change; 25 °C; 10 mM Tris-HCl, pH 7.2, 150 mM NaCl, 1 mM EDTA, 1 mg mL−1 BSA, 0.01% (v/v) Tween-20; analyte 81 to 0.012 μM, three-fold dilution series
T1 chain: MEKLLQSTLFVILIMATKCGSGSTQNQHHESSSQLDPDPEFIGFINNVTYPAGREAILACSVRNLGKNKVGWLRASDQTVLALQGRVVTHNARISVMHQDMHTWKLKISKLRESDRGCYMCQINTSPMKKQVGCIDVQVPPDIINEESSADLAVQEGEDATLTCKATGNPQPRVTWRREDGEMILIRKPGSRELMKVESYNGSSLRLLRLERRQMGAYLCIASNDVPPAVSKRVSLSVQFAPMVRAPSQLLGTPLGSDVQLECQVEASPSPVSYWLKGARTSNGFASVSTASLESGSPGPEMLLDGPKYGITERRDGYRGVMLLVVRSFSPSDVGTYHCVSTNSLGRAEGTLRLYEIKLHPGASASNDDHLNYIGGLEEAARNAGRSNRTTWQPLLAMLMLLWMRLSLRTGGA

[2] = target: T2, DIP-α (Dpr Interacting Protein alpha), extracellular region, Q9W4R3; conditions: chain shown with the change; 25 °C; 10 mM Tris-HCl, pH 7.2, 150 mM NaCl, 1 mM EDTA, 1 mg mL−1 BSA, 0.01% (v/v) Tween-20; analyte 81 to 0.012 μM, three-fold dilution series; parent: 0.0 kcal/mol
T2 chain: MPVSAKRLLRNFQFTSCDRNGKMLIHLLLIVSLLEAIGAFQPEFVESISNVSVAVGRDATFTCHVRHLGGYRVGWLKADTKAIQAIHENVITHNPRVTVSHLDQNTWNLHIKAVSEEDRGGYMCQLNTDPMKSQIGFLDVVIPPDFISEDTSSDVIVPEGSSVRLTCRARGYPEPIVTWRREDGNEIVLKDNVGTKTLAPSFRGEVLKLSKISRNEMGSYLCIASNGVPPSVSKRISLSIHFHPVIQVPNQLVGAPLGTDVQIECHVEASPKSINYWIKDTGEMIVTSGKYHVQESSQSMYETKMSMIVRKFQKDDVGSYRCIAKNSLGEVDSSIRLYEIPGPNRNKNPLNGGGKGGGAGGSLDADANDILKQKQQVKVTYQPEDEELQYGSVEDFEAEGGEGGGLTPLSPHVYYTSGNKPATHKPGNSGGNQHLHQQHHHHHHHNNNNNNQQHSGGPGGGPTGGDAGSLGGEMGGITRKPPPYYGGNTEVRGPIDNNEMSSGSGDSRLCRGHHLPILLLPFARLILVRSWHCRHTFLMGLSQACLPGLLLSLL

[3] = target: T3, Dpr11 (Defective proboscis extension response 11), extracellular region, Q8MRE6; conditions: chain shown with the change; 25 °C; 10 mM Tris-HCl, pH 7.2, 150 mM NaCl, 1 mM EDTA, 1 mg mL−1 BSA, 0.01% (v/v) Tween-20; analyte 81 to 0.012 μM, three-fold dilution series
T3 chain: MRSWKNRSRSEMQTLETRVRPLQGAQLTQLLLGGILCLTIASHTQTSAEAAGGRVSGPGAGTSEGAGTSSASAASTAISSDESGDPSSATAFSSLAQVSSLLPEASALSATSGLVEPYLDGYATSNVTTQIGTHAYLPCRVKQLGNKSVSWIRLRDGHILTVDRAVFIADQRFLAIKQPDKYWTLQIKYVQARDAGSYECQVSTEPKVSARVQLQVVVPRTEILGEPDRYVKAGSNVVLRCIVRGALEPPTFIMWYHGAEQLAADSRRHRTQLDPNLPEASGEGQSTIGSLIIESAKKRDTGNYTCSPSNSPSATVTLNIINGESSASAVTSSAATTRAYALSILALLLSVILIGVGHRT

ddG [1]: 0.6 kcal/mol
B1: Dpr11 (Defective proboscis extension response 11), extracellular region, Q8MRE6 K207V (protein)
chain: T3 chain with K207V

ddG [2]: < -2 kcal/mol
B3: Dpr11 (Defective proboscis extension response 11), extracellular region, Q8MRE6 K207V; E205Q; G157L (protein)
chain: T3 chain with G157L, E205Q, K207V

Continued, binder first:

B2: Dpr11 (Defective proboscis extension response 11), extracellular region, Q8MRE6 E205Q; K207V (protein)
chain: T3 chain with E205Q, K207V
ddG [1]: 1.7 kcal/mol

B4: DIP-γ (Dpr Interacting Protein gamma), extracellular region, Q9VAR6 D77T (protein)
chain: T1 chain with D77T
ddG [3]: 0.9 kcal/mol
